This is an account of results in patent US20040023332A1 (GENEXINE, published 2004).

The chains are these.
B1: human IL-12p35 subunit, wild type (ligand, UniProt P29459 23-219, looked up)
chain: RNLPVATPDPGMFPCLHHSQNLLRAVSNMLQKARQTLEFYPCTSEEIDHEDITKDKTSTVEACLPLELTKNESCLNSRETSFITNGSCLASRKTSFMMALCLSSIYEDLKMYQVEFKTMNAKLLMDPKRQIFLDQNMLAVIDELMQALNFNSETVPQKSSLEEPDFYKTKIKLCILLHAFRIRAVTIDRVMSYLNAS
notes: also called hp35
B2: human IL-12p40 mutant hp40-N222L (ligand)
chain: IWELKKDVYVVELDWYPDAPGEMVVLTCDTPEEDGITWTLDQSSEVLGSGKTLTIQVKEFGDAGQYTCHKGGEVLSHSLLLLHKKEDGIWSTDILKDQKEPKNKTFLRCEAKNYSGRFTCWWLTTISTDLTFSVKSSRGSSDPQGVTCGAATLSAERVRGDNKEYEYSVECQEDSACPAAEESLPIEVMVDAVHKLKYELYTSSFFIRDIIKPDPPKNLQLKPLKNSRQVEVSWEYPDTWSTPHSYFSLTFCVQVQGKSKREKKDRVFTDKTSATVICRKNASISVRAQDRYYSSSWSEWASVPCS
notes: NO; 3 already carries N222L; also called Leu-222
B3: human IL-12p40 mutant hp40-N222Q (ligand)
chain: B2 chain with L200Q
notes: NO; 4 already carries N222Q; also called Gln-222

Changes are numbered by the printed parent chain. Names may count otherwise.

The first assay deals with human IL-12p40 subunit, wild type (human) (UniProt P29460). Nature of the assay: IL-12p70 ELISA of lysates of co-transfected COS-7 cells. (In general: ELISA stands for enzyme-linked immunosorbent assay.)
In the case of “human IL-12p35 mutant hp35-N141Q (from UniProt P29459 23-219) (ligand)”, the IL-12p70 heterodimer in cell lysates (% of wild type) came out at 90%. The same measure, in the same setting: to “human IL-12p35 mutant hp35-N251Q (from UniProt P29459 23-219) (ligand)” belongs 88%. The same measure, in the same setting: to “human IL-12p35 double mutant hp35-N127,141Q (from UniProt P29459 23-219) (ligand)” belongs 71%. The same measure, in the same setting: to “human IL-12p35 mutant hp35-N127Q (from UniProt P29459 23-219) (ligand)” belongs 72%. With B1, the IL-12p70 heterodimer in cell lysates (% of wild type) came to 100%.

The target of the next assay is B1. The assay is described as above. Here is the method: 1.5 μg/Ml of tunicamycin was added in some experiments. After incubation for another 24 hours, supernatants and cell pellets were harvested by centrifugation. Supernatants were used for the SEAP assay and cell pellets were resuspended in 200 μl of lysis solution (Promega). The levels of IL-12p70 and IL-12p40 in both supernatants and cell lysates were measured by ELISA (R&D system). For immunoblotting, 10% or 12% sodium dodecyl-sulfate-polyacrylamide electrophoresis (SDS-PAGE) was conducted with supernatants and cell lysates. The proteins separated from the above experiment was electrotransfered to nylon membrane (Amersham). The proteins absorbed to the membrane were obtained by using biotin-labeled human IL-12 antibody (Amersham), horseradish peroxidase (HRP)-labeled streptavidin (PharMingen) and ECL kit (Amersham). The levels of IL-12p70 or IL-12p40 expression were measured by ELISA and presented relatively to the level of wild type, which is arbitrarily set at 100%.
^aTotal 20 μg of each DNA contruct was used for transfection into COS-7 cells by electroporation. For simultaneous transfection of two DNA constructs, 10 μg of each DNA construct was used. ^bThe levels of human and mouse IL-12p70 or IL-12p40 expression were measured by ELISA and presented relative to the wild-type, which is arbitrarily set at 100%. ^cThe equal amount of p70 in each mutant supernatant was used in the IFN-γ induction assay. The levels of induced IFN-γ were measured by ELISA and presented relative to the level of wild type, which is arbitrarily set at 100%. ^dIL-12p40 indicates the monomeric and homodimeric p40 form of IL-12p40, but not the p40 part of IL-12p70. ^eIL-12p70 indicates the heterodimer which consists of IL-12p35 and IL-12p40. ^fThe plasmid backbone used for independent expression of hIL-12p40, hIL-12p35, and their derivatives is pCIN-neo and is descibed as mock. ^g<1 indicates values below the detectable range of ELISA assay. ^hWhen the equal amount of p70 in each indicated mutant (hp40-N135Q) and wild-type supernatant is used in IFN-γ induction assay, the insufficient hp40 in each mutant supernatant compared to wild-type supernatantwas reconstituted with hp40 supernatant obtained after tranfection with hp40 only ⁱNumbers in ( ) mean each amount (μg) of cotransfected plasmid, pCIN-hp40-N222Q and pCIN-hp35.
“human IL-12p40 mutant hp40-N125Q (from UniProt P29460 23-328) (ligand)” had an IL-12p70 heterodimer in cell lysates (% of wild type) of 97%. With “human IL-12p40 mutant hp40-N135Q (from UniProt P29460 23-328) (ligand)”, the IL-12p70 heterodimer in cell lysates (% of wild type) was 99%.

As for B2, the “IL-12p70 heterodimer in cell lysates (% of wild type)” value worked out at 89%. Same read-out and setting: then B3, with 90%.

A further assay addresses B3. Nature of the assay: co-transfection of hp40-N222Q plasmid with varied amounts of hp35 DNA, IL-12p70 ELISA.
For the molecule B1, the binding result is recorded as “binds”.
